This assay in a line: Oxygen dissociation rates of DevS proteins, stopped flow. The format is binding, Mycobacterium tuberculosis.

B1: full-length Y171F DevS (protein, UniProt P9WGK3 1-578, looked up, variant Y171F)
chain: MTTGGLVDENDGAAMRPLRHTLSQLRLHELLVEVQDRVEQIVEGRDRLDGLVEAMLVVTAGLDLEATLRAIVHSATSLVDARYGAMEVHDRQHRVLHFVYEGIDEETVRRIGHLPKGLGVIGLLIEDPKPLRLDDVSAHPASIGFPPYHPPMRTFLGVPVRVRDESFGTLFLTDKTNGQPFSDDDEVLVQALAAAAGIAVANARLYQQAKARQSWIEATRDIATELLSGTEPATVFRLVAAEALKLTAADAALVAVPVDEDMPAADVGELLVIETVGSAVASIVGRTIPVAGAVLREVFVNGIPRRVDRVDLEGLDELADAGPALLLPLRARGTVAGVVVVLSQGGPGAFTDEQLEMMAAFADQAALAWQLATSQRRMRELDVLTDRDRIARDLHDHVIQRLFAIGLALQGAVPHERNPEVQQRLSDVVDDLQDVIQEIRTTIYDLHGASQGITRLRQRIDAAVAQFADSGLRTSVQFVGPLSVVDSALADQAEAVVREAVSNAVRHAKASTLTVRVKVDDDLCIEVTDNGRGLPDEFTGSGLTNLRQRAEQAGGEFTLASVPGASGTVLRWSAPLSQ
modifications: full-length
As to B1, the O2 koff is on record as 3.85 ± 0.69 ^b s^−1.

These data come from publication PMC2756985 (Biochemistry, 2009).
